How the values were obtained:
[1] = molecular target: T1, Cap1 (CRISPR-associated pore 1) (Parafilimonas terrae, UniProt A0A1I5TJE5, Q118A); assay: ITC with purified CARFL Q118A domain; format: binding
T1 construct: gene SAMN05444277_102160; CARFL domain (residues 85–220), His6-tagged

[2] = molecular target: T2, Cap1 (CRISPR-associated pore 1) (Parafilimonas terrae, UniProt A0A1I5TJE5); assay: ITC with purified CARFL domain; cryo-EM structure of cA4-bound full-length tetramer ([…] Å); format: binding
T2 construct: gene SAMN05444277_102160; ITC: CARFL domain (residues 85–220), His6-tagged; cryo-EM: full-length Cap1-His6 in GDN, homotetramer
T2 sequence (A0A1I5TJE5 85-220): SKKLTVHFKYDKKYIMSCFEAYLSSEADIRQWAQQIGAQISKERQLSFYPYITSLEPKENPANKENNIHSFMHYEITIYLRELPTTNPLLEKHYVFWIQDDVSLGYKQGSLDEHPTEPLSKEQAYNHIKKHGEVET

[3] = molecular target: Cap1 (CRISPR-associated pore 1), full-length, C-terminal His6 tag (Parafilimonas terrae); assay: cryo-EM structure; Cap1 in GDN, 150 μM (as monomer) with 800 μM cA4, 30 min on ice; two classes: 2.9 Å (C4; DUF4579 not visible) and 3.6 Å (C4; DUF4579 visible, TM1 not resolved)
[4] = molecular target: Cap1 (CRISPR-associated pore 1), full-length, C-terminal His6 tag (Parafilimonas terrae); assay: cryo-EM structure; apo-Cap1 in GDN, 200 μM protein, 0.5 mM FOM detergent added for grids; map at 3.4 Å, C1 symmetry
[5] = molecular target: Cap1 (CRISPR-associated pore 1), full-length, C-terminal His6 tag (Parafilimonas terrae); assay: SEC-MALS; conjugate SEC-MALS (protein conjugate method) of apo-Cap1 without cOA ligand; Superdex200 10/300 increase; 25 mM Hepes pH 8, 200 mM NaCl, 2 mM β-mercaptoethanol, 5 % glycerol, 375 μM GDN

stoichiometry N [3] | stoichiometry N [4] | stoichiometry N [5] | Molecule | Kd [1] | Kd [2]
 |  |  | Nc1ncnc2c1ncn2[C@@H]1O[C@@H]2COP(=O)(O)O[C@H]3[C@@H](O)[C@H](n4cnc5c(N)ncnc54)O[C@@H]3COP(=O)(O)O[C@H]3[C@@H](O)[C@H](n4cnc5c(N)ncnc54)O[C@@H]3COP(=O)(O)O[C@H]3[C@@H](O)[C@H](n4cnc5c(N)ncnc54)O[C@@H]3COP(=O)(O)O[C@H]2[C@H]1O [cA4, cyclic tetra-adenylate] | ~1200 nM | ~33 nM
4 | 4 | 4 | Cap1 (CRISPR-associated pore 1), full-length, C-terminal His6 tag (natural protein) |  | 
